# Experimental data reported in patent US20100135951.
# System: Ser90 mutant DDX3
substance,measurement,value
GSK3,phosphorylation (32P incorporation),GSK3 fails to phosphorylate DDX3 with a point mutation at Ser90
